Data taken from patent US20060241051A1 (Takeda / Millennium, published 2006).
Square brackets hold non-standard residues; d marks the D form. Ends that are not written are not given here. * marks the point of attachment. Phe(3,4-Cl2) = N[C@@H](Cc1ccc(Cl)c(Cl)c1)C(=O)O; Propanoyl(3-(3-pyridyl)) = O=C(CCc1cccnc1)*; Phe(4-NH2) = Nc1ccc(C[C@H](N)C(=O)O)cc1; Arg(Me) = CNC(=N)NCCC[C@H](N)C(=O)O; Bta = N[C@@H](Cc1csc2ccccc12)C(=O)O; 4Pal = N[C@@H](Cc1ccncc1)C(=O)O; d4Pal = N[C@H](Cc1ccncc1)C(=O)O; Cha = N[C@@H](CC1CCCCC1)C(=O)O; Abu = CC[C@H](N)C(=O)O; azaGly = NNC(=O)O

B1: Compound No. 305: des(1)-[D-Tyr2,D-Pya(4) 3,AzaGly7,Arg(Me)9]MS10 (peptide)
peptide: [dY][d4Pal]NSF[azaGly]L[Arg(Me)]F-NH2
modifications: N-terminus assumed
SMILES: CNC(=N)NCCC[C@H](NC(=O)[C@H](CC(C)C)NC(=O)NNC(=O)[C@H](Cc1ccccc1)NC(=O)[C@H](CO)NC(=O)[C@H](CC(N)=O)NC(=O)[C@@H](Cc1ccncc1)NC(=O)[C@H](N)Cc1ccc(O)cc1)C(=O)N[C@@H](Cc1ccccc1)C(N)=O
notes: also called KiSS305; KiSS1-305
B2: Compound No. 322: des(1-3)-3-Pyridylpropionyl-[AzaGly7,Arg(Me)9]MS10 (peptide)
peptide: {Propanoyl(3-(3-pyridyl))}-NSF[azaGly]L[Arg(Me)]F-NH2
SMILES: CNC(=N)NCCC[C@H](NC(=O)[C@H](CC(C)C)NC(=O)NNC(=O)[C@H](Cc1ccccc1)NC(=O)[C@H](CO)NC(=O)[C@H](CC(N)=O)NC(=O)CCc1cccnc1)C(=O)N[C@@H](Cc1ccccc1)C(N)=O
notes: also called KiSS322; KiSS1-322
B3: Compound No. 189: [Ala(3-Bzt)10]MS10 (peptide)
peptide: YNWNSFGLR[Bta]-NH2
modifications: N-terminus assumed
SMILES: CC(C)C[C@H](NC(=O)CNC(=O)[C@H](Cc1ccccc1)NC(=O)[C@H](CO)NC(=O)[C@H](CC(N)=O)NC(=O)[C@H](Cc1c[nH]c2ccccc12)NC(=O)[C@H](CC(N)=O)NC(=O)[C@@H](N)Cc1ccc(O)cc1)C(=O)N[C@@H](CCCNC(=N)N)C(=O)N[C@@H](Cc1csc2ccccc12)C(N)=O
B4: Compound No. 171: [D-Tyr1,Cha3,Arg(Me)9]MS10 (peptide)
peptide: [dY]N[Cha]NSFGL[Arg(Me)]F-NH2
modifications: N-terminus assumed
SMILES: CNC(=N)NCCC[C@H](NC(=O)[C@H](CC(C)C)NC(=O)CNC(=O)[C@H](Cc1ccccc1)NC(=O)[C@H](CO)NC(=O)[C@H](CC(N)=O)NC(=O)[C@H](CC1CCCCC1)NC(=O)[C@H](CC(N)=O)NC(=O)[C@H](N)Cc1ccc(O)cc1)C(=O)N[C@@H](Cc1ccccc1)C(N)=O
B5: Compound No. 187: [Abu8]MS10 (peptide)
peptide: YNWNSFG[Abu]RF-NH2
modifications: N-terminus assumed
SMILES: CC[C@H](NC(=O)CNC(=O)[C@H](Cc1ccccc1)NC(=O)[C@H](CO)NC(=O)[C@H](CC(N)=O)NC(=O)[C@H](Cc1c[nH]c2ccccc12)NC(=O)[C@H](CC(N)=O)NC(=O)[C@@H](N)Cc1ccc(O)cc1)C(=O)N[C@@H](CCCNC(=N)N)C(=O)N[C@@H](Cc1ccccc1)C(N)=O
B6: Compound No. 174: [D-Tyr1,Arg(Me)9,Trp10]MS10 (peptide)
peptide: [dY]NWNSFGL[Arg(Me)]W-NH2
modifications: N-terminus assumed
SMILES: CNC(=N)NCCC[C@H](NC(=O)[C@H](CC(C)C)NC(=O)CNC(=O)[C@H](Cc1ccccc1)NC(=O)[C@H](CO)NC(=O)[C@H](CC(N)=O)NC(=O)[C@H](Cc1c[nH]c2ccccc12)NC(=O)[C@H](CC(N)=O)NC(=O)[C@H](N)Cc1ccc(O)cc1)C(=O)N[C@@H](Cc1c[nH]c2ccccc12)C(N)=O
B7: Compound No. 170: [D-Tyr1,Ser3,Arg(Me)9]MS10 (peptide)
peptide: [dY]NSNSFGL[Arg(Me)]F-NH2
modifications: N-terminus assumed
SMILES: CNC(=N)NCCC[C@H](NC(=O)[C@H](CC(C)C)NC(=O)CNC(=O)[C@H](Cc1ccccc1)NC(=O)[C@H](CO)NC(=O)[C@H](CC(N)=O)NC(=O)[C@H](CO)NC(=O)[C@H](CC(N)=O)NC(=O)[C@H](N)Cc1ccc(O)cc1)C(=O)N[C@@H](Cc1ccccc1)C(N)=O
B8: Compound No. 169: [D-Tyr1,Ala3,Arg(Me)9]MS10 (peptide)
peptide: [dY]NANSFGL[Arg(Me)]F-NH2
modifications: N-terminus assumed
SMILES: CNC(=N)NCCC[C@H](NC(=O)[C@H](CC(C)C)NC(=O)CNC(=O)[C@H](Cc1ccccc1)NC(=O)[C@H](CO)NC(=O)[C@H](CC(N)=O)NC(=O)[C@H](C)NC(=O)[C@H](CC(N)=O)NC(=O)[C@H](N)Cc1ccc(O)cc1)C(=O)N[C@@H](Cc1ccccc1)C(N)=O
B9: Compound No. 190: [D-Tyr1,Cha3,AzaGly7,Arg(Me)9]MS10 (peptide)
peptide: [dY]N[Cha]NSF[azaGly]L[Arg(Me)]F-NH2
modifications: N-terminus assumed
SMILES: CNC(=N)NCCC[C@H](NC(=O)[C@H](CC(C)C)NC(=O)NNC(=O)[C@H](Cc1ccccc1)NC(=O)[C@H](CO)NC(=O)[C@H](CC(N)=O)NC(=O)[C@H](CC1CCCCC1)NC(=O)[C@H](CC(N)=O)NC(=O)[C@H](N)Cc1ccc(O)cc1)C(=O)N[C@@H](Cc1ccccc1)C(N)=O
B10: Compound No. 182: [D-Tyr1,Cha3,6,Arg(Me)9,Trp10]MS10 (peptide)
peptide: [dY]N[Cha]NS[Cha]GL[Arg(Me)]W-NH2
modifications: N-terminus assumed
SMILES: CNC(=N)NCCC[C@H](NC(=O)[C@H](CC(C)C)NC(=O)CNC(=O)[C@H](CC1CCCCC1)NC(=O)[C@H](CO)NC(=O)[C@H](CC(N)=O)NC(=O)[C@H](CC1CCCCC1)NC(=O)[C@H](CC(N)=O)NC(=O)[C@H](N)Cc1ccc(O)cc1)C(=O)N[C@@H](Cc1c[nH]c2ccccc12)C(N)=O

These molecules were tested against human OT7T175 (metastin receptor) (human) (UniProt Q969F8) (assay: FMAT competition with Cy-5-labeled metastin (40-54), hOT7T175-expressed CHO cells).
Chain of human OT7T175 (metastin receptor) (human) (Q969F8 whole entry L364H): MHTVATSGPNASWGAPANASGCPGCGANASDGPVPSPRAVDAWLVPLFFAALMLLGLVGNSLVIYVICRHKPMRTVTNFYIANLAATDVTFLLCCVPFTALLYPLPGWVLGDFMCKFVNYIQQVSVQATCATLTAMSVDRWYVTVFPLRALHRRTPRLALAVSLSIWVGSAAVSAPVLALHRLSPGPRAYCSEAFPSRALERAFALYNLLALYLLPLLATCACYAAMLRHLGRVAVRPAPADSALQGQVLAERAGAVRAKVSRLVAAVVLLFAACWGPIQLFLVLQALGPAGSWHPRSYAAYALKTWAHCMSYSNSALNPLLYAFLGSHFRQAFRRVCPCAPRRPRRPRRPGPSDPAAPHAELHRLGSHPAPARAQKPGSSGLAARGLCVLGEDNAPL

“Compound No. 238: [D-Tyr1,D-Asn2,D-Trp3,AzaGly7,Arg(Me)9]MS10 (peptide)” gave an IC50 of 49 nM.

The molecules below were run against T1, human OT7T175 (metastin receptor) (human, UniProt Q969F8 1-398) (assay: cell-based or functional assay).
T1 sequence (Q969F8 whole entry L364H): as above

Point of comparison: B1, “intracellular Ca ion level-increasing activity (FLIPR)” value 5 specific activity to metastin (1-54). Against it:
- [dY][dN][4Pal]NSF[azaGly]L[Arg(Me)]F-NH2 [Compound No. 303: [D-Tyr1,D-Asn2,Pya(4) 3,AzaGly7,Arg(Me)9]MS10] — the same, 5 specific activity to metastin (1-54)
- B2 — lower, 1 specific activity to metastin (1-54)

Biological target: T1, human OT7T175 (metastin receptor)
Experiment: cell-based or functional assay
Remark: another data set of the same source

Point of comparison: B7, “intracellular Ca ion level-increasing activity (FLIPR)” value 1 specific activity to metastin (1-54). Against it:
- YNWNSXGLRF (Nal(1)6; C-terminal amide) [Compound No. 151: [Nal(1)6]MS10] — the same, 1 specific activity to metastin (1-54)
- B3 — higher, 10 specific activity to metastin (1-54)
- YNWNSXGLRF (Nal(2)6; C-terminal amide) [Compound No. 152: [Nal(2)6]MS10] — higher, 5 specific activity to metastin (1-54)
- B4 — higher, 10 specific activity to metastin (1-54)
- YNWNSXGLRF (Cha6; C-terminal amide) [Compound No. 156: [Cha6]MS10] — higher, 2 specific activity to metastin (1-54)
- B5 — the same, 1 specific activity to metastin (1-54)
- YNWNSFGLRX (Nal(1)10; C-terminal amide) [Compound No. 133: [Nal(1)10]MS10] — higher, 3 specific activity to metastin (1-54)
- YNWNSFGLRW-NH2 [Compound No. 134: [Trp10]MS10] — higher, 30 specific activity to metastin (1-54)
- B6 — higher, 10 specific activity to metastin (1-54)
- B8 — higher, 2 specific activity to metastin (1-54)
- B9 — higher, 10 specific activity to metastin (1-54)
- YNWNSFGLR[Phe(3,4-Cl2)]-NH2 [Compound No. 199: [Phe(3,4Cl2)10]MS10] — higher, 3 specific activity to metastin (1-54)
- YNWNSFGLR[Phe(4-NH2)]-NH2 [Compound No. 131: [Phe(4NH2)10]MS10] — higher, 3 specific activity to metastin (1-54)
- B10 — higher, 5 specific activity to metastin (1-54)
- YN[dW]NSFGL[Arg(Me)]F-NH2 [Compound No. 143: [D-Trp3,Arg(Me)9]MS10] — higher, 3 specific activity to metastin (1-54)

Biological target: T1, human OT7T175 (metastin receptor)
Experiment: cell-based or functional assay
Remark: another data set of the same source

With [dY]N[4Pal]NSF[azaGly]L[Arg(Me)]F-NH2 [Compound No. 286: [D-Tyr1,Pya(4) 3,AzaGly7,Arg(Me)9]MS10] the “intracellular Ca ion level-increasing activity (FLIPR)” value was 2 specific activity to metastin (1-54).

Biological target: T1, human OT7T175 (metastin receptor)
Experiment: cell-based or functional assay
Remark: another data set of the same source

Point of comparison: [dY][dN][4Pal]NSF[azaGly]L[Arg(Me)]F-NH2 [Compound No. 303: [D-Tyr1,D-Asn2,Pya(4) 3,AzaGly7,Arg(Me)9]MS10], “cell growth inhibition activity, IC50” value 41.2 nM. Against it:
- B1 — 4.6-fold lower, 8.94 nM
- B2 — 1.7-fold higher, 71.9 nM
- [dY]N[4Pal]NSF[azaGly]L[Arg(Me)]F-NH2 [Compound No. 286: [D-Tyr1,Pya(4) 3,AzaGly7,Arg(Me)9]MS10] — 2.3-fold lower, 18.3 nM
- [dY]NWNSFGL[Arg(Me)]F-NH2 [Compound No. 141: [D-Tyr1,Arg(Me)9]MS10] — 2.1-fold higher, 87 nM

The molecules below were run against T1, human OT7T175 (metastin receptor) (assay: FMAT competition with Cy-5-labeled metastin (40-54), hOT7T175-expressed CHO cells).

Point of comparison: B1, IC50 1.3 nM. Against it:
- YNWNSXGLRF (Nal(1)6; C-terminal amide) [Compound No. 151: [Nal(1)6]MS10] — 230-fold higher, 300 nM
- B3 — 180-fold higher, 230 nM
- YNWNSXGLRF (Nal(2)6; C-terminal amide) [Compound No. 152: [Nal(2)6]MS10] — 140-fold higher, 180 nM
- B4 — 85-fold higher, 110 nM
- YNWNSXGLRF (Cha6; C-terminal amide) [Compound No. 156: [Cha6]MS10] — 38-fold higher, 49 nM
- [dY][dN][4Pal]NSF[azaGly]L[Arg(Me)]F-NH2 [Compound No. 303: [D-Tyr1,D-Asn2,Pya(4) 3,AzaGly7,Arg(Me)9]MS10] — 2.6-fold lower, 0.5 nM
- B5 — 550-fold higher, 720 nM
- YNWNSFGLRX (Nal(1)10; C-terminal amide) [Compound No. 133: [Nal(1)10]MS10] — 250-fold higher, 330 nM
- YNWNSFGLRW-NH2 [Compound No. 134: [Trp10]MS10] — 85-fold higher, 110 nM
- B6 — 320-fold higher, 420 nM
- B7 — 200-fold higher, 260 nM
- B8 — 120-fold higher, 160 nM
- B9 — 9.2-fold higher, 12 nM
- YNWNSFGLR[Phe(3,4-Cl2)]-NH2 [Compound No. 199: [Phe(3,4Cl2)10]MS10] — 360-fold higher, 470 nM
- B2 — 42-fold higher, 54 nM
- YNWNSFGLR[Phe(4-NH2)]-NH2 [Compound No. 131: [Phe(4NH2)10]MS10] — 92-fold higher, 120 nM
- B10 — 75-fold higher, 98 nM
- [dY]N[4Pal]NSF[azaGly]L[Arg(Me)]F-NH2 [Compound No. 286: [D-Tyr1,Pya(4) 3,AzaGly7,Arg(Me)9]MS10] — 13-fold higher, 17 nM
- YN[dW]NSFGL[Arg(Me)]F-NH2 [Compound No. 143: [D-Trp3,Arg(Me)9]MS10] — 5.9-fold higher, 7.7 nM
